The target of this assay is T1, SF3B1 ULM5 peptide (residues 333-351), wild type (human, UniProt O75533-1 333-351).
T1 peptide: KRKSRWDETPASQMGGSTP
Kind of assay: ITC. In general terms: Isothermal titration calorimetry measures the heat released or taken up as one component is titrated into another.

Residue numbers refer to the chain shown, from its start. Names and notes keep the numbering of the source.

B1: U2AF2 UHM (U2AF homology motif domain of U2AF2) (domain or fragment)
chain: TEVLCLMNMVLPEELLDDEEYEEIVEDVRDECSKYGLVKSIEIPRPVDGVEVPGCGKIFVEFTSVFDCQKAMQGLTGRKFANRVVVTKYCDPDSYHRRDFW
For the molecule B1, the “fold increase of affinity against the ULM5 peptide with the longer N-terminus” value stood at 2 fold.

B2: U2AF2 UHM K453A (domain or fragment)
chain: B1 chain with K79A
In the case of B2, the “fold decrease of affinity against the wild-type U2AF2 UHM” value is 4 fold.

The values above are taken from article doi:10.1101/2022.01.09.475535 (bioRxiv, 2022).
